Results reported in patent EP3467119A1.

Target: recombinant caspase-3 (E. coli KRX lysate, pTS1k:caspase-3(T/S))
Experiment: cell-based or functional assay

## HQ:CBS:HT (5x HQ tag:CBS:HaloTag)
  INDUCED luminescence, HisLink purification fraction E1: 2.95e+06
  INDUCED luminescence, HisLink purification fraction E2: 4.09e+07
  INDUCED luminescence, HisLink purification fraction E3: 3.29e+06
  INDUCED luminescence, HisLink purification fraction E4: 216000
  INDUCED luminescence, HisLink purification fraction E5: 48100
  INDUCED luminescence, HisLink purification sample HSS: 1.29e+07
  INDUCED luminescence, HisLink purification sample NSM: 5.82e+06
  INDUCED luminescence, HisLink purification sample WASH: 3.71e+06
  INDUCED luminescence, purified HQ:CBS:HT immobilised on HaloLink plate: 662000
  RESPONSE, HisLink purification fraction E1: 699 fold
  RESPONSE, HisLink purification fraction E2: 212 fold
  RESPONSE, HisLink purification fraction E3: 178 fold
  RESPONSE, HisLink purification fraction E4: 191 fold
  RESPONSE, HisLink purification fraction E5: 178 fold
  RESPONSE, HisLink purification sample HSS: 43 fold
  RESPONSE, HisLink purification sample NSM: 33 fold
  RESPONSE, HisLink purification sample WASH: 479 fold
  RESPONSE, purified HQ:CBS:HT immobilised on HaloLink plate: 96 fold
